A short description of data set [1]: Resting cell reaction, production of cinnamic acid. It counts as cell-based, Escherichia coli. The conditions noted are these: 4-aminophenylalanine alone as substrate. Here is the method: (§1) Escherichia coli was cultured at 37° C. using LB medium containing 100 mg/L ampicillin sodium or 100 mg/L kanamycin sulfate. One platinum loop of the cells was transferred from pregrown agar medium to a test tube containing 5 ml of culture medium, and shake-culture was conducted overnight at 120 rpm.
(§2) The precultured cells were transferred at 1% into 200 ml of the same medium in a baffle-equipped flask. Shake-culture was conducted at 37° C., a prescribed amount of IPTG was added at the point when the O.D. of the culture broth reached 0.3, and the culture was conducted at 28° C. for 12 hours to induce production of the target gene.
(§3) The main cultured cells were collected and rinsed once with 50 mM KPi Buffer (pH 7), and then suspended in 5 ml of a reaction mixture containing 20 mM substrate (4-aminophenylalanine, phenylalanine), for resting cell reaction. The reaction was conducted for 0 to 24 hours while shaking at 37° C. After the reaction, the supernatant was transferred to a centrifuge tube and recovered by centrifugal separation, and high-performance liquid chromatography (HPLC) was used in the following manner for quantitation of the reaction product.
HPLC (1200 infinity series: Hewlett Packard) was used for quantitation. A Purospher STAR RP-18 endcapped column was used, with a mixture of 20 mM potassium phosphate (pH 7.0) and 100% methanol as the eluent. […]

A short description of data set [2]: Km and kcat of recombinant purified enzyme for phenylalanine. It counts as biochemical. The conditions noted are these: purified His-tag enzyme. As to the method:
(§4) [Measurement of Enzyme Activity of Escherichia coli Recombinant Purified Enzyme]
(§5) Escherichia coli was inoculated into 5 ml of LB medium containing 100 mg/L ampicillin sodium or 100 mg/L kanamycin sulfate, and cultured overnight at 37° C. It was then used to inoculate 200 ml of the same culture medium and cultured to an O.D of 0.6, IPTG was added to a final concentration of 0.5 mM, and the incubation was continued for 12 hours at 28° C. The rotational speed during cultures was 120 rpm. The cultured cells were collected and suspended in 20 mM potassium phosphate buffer (pH 7.5) and subjected to ultrasonic disruption, and after centrifugal separation, the supernatant was purified using a His-Trap column and the enzyme activity was measured. The method of measuring the enzyme activity was according to the method for the crude extract described above.
(§6) Since pET28AtPAL4 and its mutants and RgPAL were produced as fusion proteins with His-tag in the Escherichia coli of Example 3, these enzymes could be easily purified using an affinity column. After culturing the producing cells, the cells were collected, disrupted and purified. The purified enzymes were used to calculate the Km values and kcat values.

Data set [3] is described as follows: Resting cell reaction, production of 4-aminocinnamic acid. It counts as cell-based, Escherichia coli. Here is the method:
as §1, §2, §3
HPLC (1200 infinity series: Hewlett Packard) was used for quantitation. A Purospher STAR RP-18 endcapped column was used, with a mixture of 20 mM potassium phosphate (pH 7.0) and 100% methanol as the eluent. Measurement was carried out using absorption at wavelengths of 210 nm, 254 nm and 280 nm.
The Escherichia coli BL21-pET28a-RgPAL cells were prepared by the following method. Escherichia coli BL21-pET28a-RgPAL was shake cultured overnight at 37° C., 120 rpm using medium containing 100 mg/L kanamycin sulfate in 5 ml of LB medium (1% tryptone, 0.5% yeast extract, 0.5% sodium chloride). A 2 mL portion of the obtained cell culture solution was transferred into 200 ml of the same medium in a 500 mL-volume Erlenmeyer flask, and then shake cultured at 37° C., 120 rpm. IPTG was added when the optical density of the culture reached 0.3, and shake culture was conducted at 28° C., 120 rpm for 12 hours. The obtained Escherichia coli BL21-pET28a-RgPAL cells were collected by centrifugal separation and rinsed once with 50 mM potassium phosphate (pH 7), after which they were suspended in the same buffer containing 20 mM of substrate (4-aminophenylalanine or phenylalanine), and incubated for 24 hours while shaking at 37° C. After the reaction, the produced 4-aminocinnamic acid or cinnamic acid was quantified using HPLC. Reaction was also carried out in aqueous 50 mM potassium phosphate at pH 8 or 9, using the same method as above. […] In particular, the conversion efficiency increased by 12-fold at pH 7.

Data set [4] can be described thus: PAL activity of Escherichia coli recombinant enzyme crude extract. It counts as biochemical. As to conditions: crude cell extract, BL21(DE3), 20 mM substrate. As to the method: (§7) [Measurement of Enzyme Activity of Escherichia coli Recombinant Enzyme Crude Extract]
(§8) Escherichia coli was inoculated into 5 ml of LB medium containing 100 mg/L ampicillin sodium or 100 mg/L kanamycin sulfate, and cultured overnight at 37° C. It was then inoculated into 200 ml of the same culture medium and cultured to an O.D. of 0.6, isopropyl-β-thiogalactopyranoside (IPTG) was added to a final concentration of 0.5 mM, and culturing was conducted for 12 hours at 28° C.
(§9) The cultured cells were collected and suspended in 20 mM potassium phosphate buffer (pH 7.5) and subjected to ultrasonic disruption and the supernatant was used as a crude extract for activity measurement. The enzyme activity was measured and quantified by measuring the absorbance at the absorption wavelength of the reaction product using a spectrophotometer, for a period of 5 minutes. For PAL activity, the crude extract was added to 100 mM Tris Buffer (pH 8.0) and 20 mM phenylalanine, reaction was conducted, and production of cinnamic acid was measured by the change in absorbance at a wavelength of 290 nm, while for 4APAL activity, 20 mM 4-aminophenylalanine was used as substrate and the absorbance at a wavelength of 315 nm due to 4-aminocinnamic acid was measured and quantified.

Data set [5] in a line: Km and kcat of recombinant purified enzyme for 4-aminophenylalanine. As to conditions: purified His-tag enzyme. The data set is classed as biochemical. Here is the method:
as §4, §5, §6

The nature of data set [6]: 4APAL activity of Escherichia coli recombinant enzyme crude extract. It counts as biochemical. As to conditions: crude cell extract, BL21(DE3), 20 mM substrate. As to the method:
as §7, §8, §9

B1: RgPAL: PAL derived from the yeast Rhodotorula glutinis, amino acid sequence SEQ ID NO: 2 (protein)
chain: MAPSVDSIATSVANSLSNGLAGDLRKKTSGAGSLLPTTETTQIDIVERILADAGATDQIKLDGYTLTLGDVVGAARRGRTVKVADSPQIREKIDASVEFLRTQLDNSVYGVTTGFGGSADTRTEDAISLQKALLEHQLCGVLPTSMDGFALGRGLENSLPLEVVRGAMTIRVNSLTRGHSAVRIVVLEALTNFLNHGITPIVPLRGTISASGDLSPLSYIAASITGHPDSKVHVDGQIMSAQEAIALKGLQPVVLGPKEGLGLVNGTAVSASMATLALTDAHVLSLLAQANTALTVEAMVGHAGSFHPFLHDVTRPHPTQIEVARNIRTLLEGSKYAVHHETEVKVKDDEGILRQDRYPLRCSPQWLGPLVSDMIHAHSVLSLEAGQSTTDNPLIDLENKMTHHGGAFMASSVGNTMEKTRLAVALMGKVSFTQLTEMLNAGMNRALPSCLAAEDPSLSYHCKGLDIAAAAYTSELGHLANPVSTHVQPAEMGNQAINSLALISARRTAEANDVLSLLLATHLYCVLQAVDLRAMEFEHTKEFEPMVTDLLKQHFGALATADVEDKVRKSIYKRLQQNNSYDLEQRWHDTFSVATGAVVEALAGNEVSLASLNAWKVACAEKAIALTRTVRDSFWAAPSSASPALKYLSPRTRILYSFVREDVGVKARRGDVYLGKQEVTIGTNVSRIYEAIKDGRIAPVLVKMMA
modifications: RgPAL cDNA
On to B1, for which the “cinnamic acid produced compared to AtPAL4” value in data set [1] was determined as 36%. Besides, the “Kcat value, Phenylalanine” value in data set [2] was 3.4 s⁻¹. Further, the results for the Km in data set [2] and in data set [5] were 98 µM and 22 mM, respectively. The “4-aminocinnamic acid production reached” value in data set [3] is listed as “about 1 g/L”. For the same molecule, the “4-aminocinnamic acid amount compared to AtPAL4” value in data set [3] (4-aminophenylalanine alone as substrate) turned out to be 12 times. In addition, the “conversion efficiency increase compared to AtPAL4” value in data set [3] (pH 7) is given as 12 fold. Also, the “4-aminocinnamic acid produced, maximum” value in data set [3] (resting cells reaction) amounted to 825 mg/L. Also, the “PAL activity compared to AtPAL4” value in data set [4] was found to be 8.5 fold. Further, the “Kcat value, 4-Aminophenylalanine” value in data set [5] was found to be 0.44 s⁻¹. Besides, the “4APAL activity compared to AtPAL4” value in data set [6] is recorded as 8 fold; in data set [6] (listed as enzyme of the invention) it was “approximately 8 fold”.

The Km is the concentration of substrate that gives half-maximal velocity.

These data come from US10053716B2, “4-amino cinnamic acid production method using enzyme” (JAPAN SCIENCE AND TECHNOLOGY AGENCY, priority 2014, dated 2018).
